Experimental data reported in PMC7655804.

Molecular target: ferroportin from Philippine tarsier (Carlito syrichta / Tarsius syrichta) (Carlito syrichta (Tarsius syrichta, Philippine tarsier))

Row | Substance | initial rate of Co^2+ transport by TsFpn proteoliposomes with both hepcidin and 11F9 Fab on the external side | initial rate of Co^2+ transport by TsFpn proteoliposomes with hepcidin on both inside and outside of the liposomes
1 | human hepcidin | 0.032 min⁻¹ | 
2 | human hepcidin (peptide) |  | 0.043 min⁻¹
